Laboratory results published in PMC12277127.

Legend:
Conditions in all cases: protein: recombinant; tags: none left (N-terminal His removed by TEV); chain copies: 3; single strand
[1] = biological target: T1, SPRTN core (E112Q) (human, UniProt Q9H040 26-240, E112Q); assay: ITC; with equimolar M1-Ub4 (linear tetra-ubiquitin; ternary complex); N=0.29 ± 0.01; ITC: 50 mM HEPES pH 7.4, 50 mM NaCl, 0.5 mM TCEP-HCl, 25 °C, one-site model
T1 sequence: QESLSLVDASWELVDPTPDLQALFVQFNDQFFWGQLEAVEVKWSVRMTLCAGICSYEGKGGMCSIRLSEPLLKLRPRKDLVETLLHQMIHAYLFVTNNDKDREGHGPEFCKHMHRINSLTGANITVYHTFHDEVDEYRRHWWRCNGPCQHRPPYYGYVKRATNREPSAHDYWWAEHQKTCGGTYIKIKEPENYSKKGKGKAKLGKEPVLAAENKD

[2] = biological target: T1, SPRTN core (E112Q); assay: ITC; with equimolar monoUb; N=0.36 ± 0.02; ITC: 50 mM HEPES pH 7.4, 50 mM NaCl, 0.5 mM TCEP-HCl, 25 °C, one-site model
[3] = biological target: T1, SPRTN core (E112Q); assay: ITC; no ubiquitin; N=0.36 ± 0.05; ITC: 50 mM HEPES pH 7.4, 50 mM NaCl, 0.5 mM TCEP-HCl, 25 °C, one-site model

How did the Kd [1] turn out when ACGCCTGAAGAGTCTGGTGA (ssDNA) [ssDNA (20 nt), Turner-20bp-F] was run?
Its Kd is 440 ± 30 nM.

And the Kd [2]?
Its Kd is 5.15 ± 1.36 µM.

What about the Kd [3] of the same binder?
The Kd was 4.33 ± 0.98 µM.
